In US20240424107:

Tested on: IgG Fc dimer protein, P01857-1
Conditions: printed ggAGG[2'-F-rU]Gc[2'-F-rU]ccgaaaGgaa[2'-F-rC][2'-F-rU]cc (lowercase DNA, uppercase RNA); about 10 oxanine nucleotides added at 3' end; at least one aptamer per Fc dimer, one or two observed; HEPES pH 8.4, Mg, K, 37 C, 1 day

GGAGGTGCTCCGAAAGGAACTCC [Fc RNA aptamer Apt8-2-oxanine]
activity (% conjugation): > 98
